Laboratory results taken from paper PMC6639331, “Reconstitution of recombinant human CCR4-NOT reveals molecular insights into regulated deadenylation”.

Legend:
[1] = target: T1, CAF40 module (NOT1:CAF40) (Homo sapiens, UniProt A5YKK6;Q92600 1351-1588;19-285); assay: EMSA; 25 uM protein, 100 nM RNA; EMSA: 20 mM Tris/HCl pH 7.5, 10 mM NaCl, 2 mM MgCl2, 0.1% BSA, 0.1% Orange G, 3% Ficoll 400; 100 nM RNA; 10% native PAGE in TBE pH 8.3; temperature not stated; settings: protein: recombinant; tags: MBP (NOT1) and His6 (CAF40) removed; copies: 1;1; label: 5' 6-FAM
NOT10:NOT11 = NOT10:NOT11 (Homo sapiens, UniProt Q9H9A5;Q9UKZ1 25-707;257-498); assay: EMSA; 1 uM protein, 100 nM RNA; EMSA: 20 mM Tris/HCl pH 7.5, 10 mM NaCl, 2 mM MgCl2, 0.1% BSA, 0.1% Orange G, 3% Ficoll 400; 100 nM RNA; 10% native PAGE in TBE pH 8.3; temperature not stated; settings: protein: recombinant; tags: MBP (NOT10) and C-His6 (NOT11) removed; copies: 1;1; label: 5' 6-FAM
[2] = target: T1, CAF40 module (NOT1:CAF40); assay: EMSA competition; 100 uM NOT1:CAF40 + 200 uM MBP-Bam CBM L17E;M24E; almost no effect on RNA binding; EMSA: 20 mM Tris/HCl pH 7.5, 10 mM NaCl, 2 mM MgCl2, 0.1% BSA, 0.1% Orange G, 3% Ficoll 400; 100 nM RNA; 10% native PAGE in TBE pH 8.3; temperature not stated; settings: protein: recombinant; tags: MBP (NOT1) and His6 (CAF40) removed; copies: 1;1; label: 5' 6-FAM

Sequence of NOT10:NOT11 (Q9H9A5 25-707, chain 1 of 2, other chains not shown): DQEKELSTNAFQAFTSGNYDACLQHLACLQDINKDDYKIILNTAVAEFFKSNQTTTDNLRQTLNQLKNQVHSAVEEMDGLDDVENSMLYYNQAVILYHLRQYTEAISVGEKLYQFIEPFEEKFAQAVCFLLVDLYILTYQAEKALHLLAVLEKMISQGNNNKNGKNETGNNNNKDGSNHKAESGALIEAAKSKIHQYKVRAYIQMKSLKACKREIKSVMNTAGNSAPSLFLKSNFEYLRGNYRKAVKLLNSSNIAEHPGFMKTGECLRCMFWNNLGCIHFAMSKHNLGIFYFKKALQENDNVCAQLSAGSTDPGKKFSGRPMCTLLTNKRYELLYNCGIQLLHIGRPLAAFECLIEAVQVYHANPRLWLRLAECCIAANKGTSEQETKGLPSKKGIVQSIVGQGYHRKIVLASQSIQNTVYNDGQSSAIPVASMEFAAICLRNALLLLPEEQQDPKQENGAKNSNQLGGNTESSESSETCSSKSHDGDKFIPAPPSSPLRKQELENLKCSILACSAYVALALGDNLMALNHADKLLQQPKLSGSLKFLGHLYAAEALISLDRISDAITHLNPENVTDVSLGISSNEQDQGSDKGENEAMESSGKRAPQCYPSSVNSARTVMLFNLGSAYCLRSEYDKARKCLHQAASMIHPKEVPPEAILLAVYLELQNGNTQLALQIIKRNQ
T1 sequence (A5YKK6 1351-1588, chain 1 of 2): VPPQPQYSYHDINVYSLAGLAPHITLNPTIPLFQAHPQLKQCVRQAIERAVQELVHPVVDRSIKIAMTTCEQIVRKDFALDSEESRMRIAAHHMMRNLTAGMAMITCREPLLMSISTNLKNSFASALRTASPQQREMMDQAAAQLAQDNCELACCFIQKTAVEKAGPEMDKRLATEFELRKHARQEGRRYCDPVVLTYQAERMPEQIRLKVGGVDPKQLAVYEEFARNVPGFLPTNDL
T1 sequence (Q92600 19-285, chain 2 of 2): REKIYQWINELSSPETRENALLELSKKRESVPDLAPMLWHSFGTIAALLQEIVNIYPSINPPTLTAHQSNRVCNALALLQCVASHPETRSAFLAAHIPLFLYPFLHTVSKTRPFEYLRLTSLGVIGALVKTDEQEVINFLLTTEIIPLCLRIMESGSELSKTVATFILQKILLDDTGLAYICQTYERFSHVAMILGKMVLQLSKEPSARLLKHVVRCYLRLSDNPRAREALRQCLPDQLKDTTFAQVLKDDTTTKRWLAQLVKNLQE

| Binder | binding result [1] | binding result (NOT10:NOT11) | binding result [2] |
| --- | --- | --- | --- |
| CACAUCCAACUUCUCUAAAUAAAAAAAAAAAAAAAAAAAA (ssRNA) [13+7-mer-A20] | binds | binds |  |
| UCUAAAUAAAAAAAAAAAAAAAAAAAA (ssRNA) [7-mer-A20] |  | binds | binds |
